The values that follow come from US20250312473A1 (BEONE MEDICINES I, published 2025).

Test [1] deals with T1, ECD of human 4Ig-B7H3 (Sinobiological, Cat: 11188-H08H) (human).
T1 construct: Bought protein; also called human 4Ig-B7H3 ECD
Kind of test: SPR, antibody captured on anti-human Fc surface, Test 1. An excerpt:
(§1) For affinity determination, antibodies were captured by anti-human Fc surface, and used in an affinity assay based on surface plasmon resonance (SPR) technology.

Test [2] concerns the target T2, human 4Ig-B7H3 over-expressed on NK92mi cells (human, UniProt Q5ZPR3 29-534).
T2 construct: Full-length protein on live engineered NK92mi cells; also called NK92mi/B7H3; native B7H3
T2 sequence: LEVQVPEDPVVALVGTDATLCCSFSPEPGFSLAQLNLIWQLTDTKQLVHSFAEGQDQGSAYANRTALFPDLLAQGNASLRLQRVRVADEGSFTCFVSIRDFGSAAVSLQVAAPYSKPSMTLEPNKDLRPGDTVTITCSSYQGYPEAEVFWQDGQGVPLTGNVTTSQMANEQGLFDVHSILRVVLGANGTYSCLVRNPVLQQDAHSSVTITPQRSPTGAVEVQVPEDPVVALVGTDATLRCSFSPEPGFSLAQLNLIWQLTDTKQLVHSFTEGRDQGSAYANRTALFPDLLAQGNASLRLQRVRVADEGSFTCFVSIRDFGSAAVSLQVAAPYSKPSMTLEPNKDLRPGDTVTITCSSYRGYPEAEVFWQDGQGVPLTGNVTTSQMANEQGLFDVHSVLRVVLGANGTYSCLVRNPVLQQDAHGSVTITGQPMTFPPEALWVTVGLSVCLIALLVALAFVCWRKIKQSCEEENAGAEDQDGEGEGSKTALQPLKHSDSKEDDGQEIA
Kind of test: FACS on live NK92mi/B7H3 cells, goat anti-human IgG detection, Test1. How it is done: (§2) To evaluate the binding activity of humanized antibodies to bind native B7H3 on live cells, NK92mi cells were engineered to over-express human 4Ig-B7H3. Live NK92mi/B7H3 cells were seeded in 96-well plates and were incubated with a series of dilutions of chimeric or humanized antibodies. Goat anti-human IgG was used as second antibody to detect antibody binding to the cell surface. EC₅₀ values for dose-dependent binding to human native B7H3 were determined by fitting the dose-response data to the four-parameter logistic model with GraphPad Prism.

Test [3] addresses T1, ECD of human 4Ig-B7H3 (Sinobiological, …). Kind of test: SPR, antibody captured on anti-human Fc surface, Test 2.
Source text: as §1

The target of test [4] is T2, human 4Ig-B7H3 over-expressed on NK92mi …. Kind of test: FACS on live NK92mi/B7H3 cells, goat anti-human IgG detection, Test2. The method, then: as §2

B1: Chimeric BGA-3295 (antibody, V domains shown)
VH: QIQVVQSGPELVKPGSLVKISCKASGYTFTNYDINWVKQRPGQGLEWIGWIYPGDGSAYYNEKFKGKATLTADKSSSTAYMQLSSLTSENSAVYFCARWGYGGVPFAYWGQGTLVTVSA
VL: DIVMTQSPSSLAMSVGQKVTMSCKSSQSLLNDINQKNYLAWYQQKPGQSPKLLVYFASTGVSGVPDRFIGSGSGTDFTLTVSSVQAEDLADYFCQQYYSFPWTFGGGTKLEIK
notes: Murine variable domains of BGA-3295, tested as the chimeric antibody; It was captured on an anti-human Fc surface and detected with anti-human IgG; also called Antibody BGA-3295
In test [1], B1 showed a Kd of 394 pM, a koff of 0.000284 s⁻¹ and a kon of 720000 M⁻¹ s⁻¹. In test [2], this molecule yielded an EC50 of 1100 pM.

B2: BGA-4348 (antibody, human IgG1, V domains shown)
VH: QIQLVQSGAEVKKPGSSVKVSCKASGYTFTNYDINWVRQAPGQGLEWMGWIYPGDGSAYYNEKFKGRATITADKSTSTAYMELSSLRSEDTAVYYCARWGYGGVPFAYWGQGTLVTVSS
VL: DIVMTQSPDSLAVSLGERATINCKSSQSLLNDINQKNYLAWYQQKPGQSPKLLVYFASTGVSGVPDRFSGSGSGTDFTLTISSLQAEDVAVYYCQQYYSFPWTFGGGTKVEIK
notes: also called humanized antibody BGA-4348; 1st version of humanized antibody; not shown: Human kappa light chain constant region
In the case of B2, in test [3], the Kd came out at 615 pM, the koff came to 0.000227 s⁻¹ and the kon turned out to be 369000 M⁻¹ s⁻¹. This molecule also displayed a 50% effective concentration (EC50) in test [4] of 940 pM. In test [1], this molecule displayed a Kd of 330 pM, an off-rate (koff) of 1.04e-05 s⁻¹ and a kon of 31500 M⁻¹ s⁻¹. This molecule came in with an EC50 in test [2] of 940 pM.

B3: BGA-5063 (antibody, human IgG1, V domains shown)
VH: QVQLVQSGAEVKKPGSSVKVSCKASGYTFTNYDINWVRQAPGQGLEWMGWIYPGDASAYYNEKFKGRATITADKSTSTAYMELSSLRSEDTAVYYCARWGYGGVPFAYWGQGTLVTVSS
VL: DIVMTQSPDSLAVSLGERATINCKSSQSLLNDINQKNYLAWYQQKPGQSPKLLVYFASTGVSGVPDRFSGSGSGTDFTLTISSLQAEDVAVYYCQQYYSFPWTFGGGTKVEIK
notes: Derived from BGA-4348 by framework and CDR mutations; also called humanized antibody BGA-5063; not shown: Human kappa light chain constant region
For the molecule B3, in test [3], the Kd turned out to be 916 pM, the koff amounted to 0.000269 s⁻¹ and the on-rate constant (kon) stood at 294000 M⁻¹ s⁻¹. This molecule registered an EC50 in test [4] of 1150 pM.

As usually defined, the Kd is the free concentration of one partner at which half of the binding sites on the other are occupied at equilibrium, for simple one-to-one binding. Low readings indicate tighter binding, high ones weaker binding. A word on the koff: it is a measure of how fast the partners let go of each other. By kon is commonly meant the second-order rate constant of association. The low end stands for slow association, the high end for fast association. For orientation: EC50 means the concentration at which the effect is half-maximal. High values mean weaker potency, low ones greater potency.
